The results in this text go back to the supplement of paper PMC12764529.

± gives the half width of the 95% confidence interval. A value given as a limit tells only on which side of the number the result lay.

A short description of series [1]: folding stability dG unfold (combined trypsin and chymotrypsin); higher = more stable. A digest of the protocol:
(§1)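 Sequencing followed digestion of designed mini-proteins with trypsin and chymotrypsin, each at 11 concentrations in threefold dilutions together with a no-protease condition. The mini-proteins were under 80 residues, had no cysteine, sat in a PA-tagged cDNA display construct, and were kept only if AlphaFold2 dimer inter-PAE was above 15. From the counts, Bayesian fitting gave K50, and unfolding free energy was derived against a sequence-predicted unfolded-state K50 and a shared folded-state K50, per protease or combined.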

Series [2] in a line: folding stability dG unfold from trypsin proteolysis; higher = more stable. Put shortly: as §1
Series [3] is described as follows: folding stability dG unfold from chymotrypsin proteolysis; higher = more stable. A digest of the protocol: as §1

Take “SAEVEVELVEVNGKLFLVMKVKEKDENGKEREYLVVVEVEFDPETKKLTVKVYVFPSKEEAEEALKKLLSAG [r14_500_TrROS_Hall]”: the “folding stability dG unfold” value in series [1] was over 6 kcal/mol; in series [2], 3.92 ± 0.52 kcal/mol; in series [3], 5.26 ± 0.45 kcal/mol.
As for “SAEVRARLEYDPVSGDLVLEVERPLPNGDVIRARVDLVNPVLRVEHLPVRDGVPLPRETELDLPADALVSAG [r14_64_TrMRF]”, the “folding stability dG unfold” value in series [1] was found to be 0.766 ± 0.067 kcal/mol; in series [2] it was 0.394 ± 0.084 kcal/mol; in series [3], 0.855 ± 0.039 kcal/mol.
Consider “SAEVTSTFDPSTGILTVTVKLEDPETGKPIPAEEVAAEVEKEYPNSTILSIEPDPEGYVTITVKVPPELVSA [r9_87_JUSTAS]”, for which the “folding stability dG unfold” value in series [1] came to 2.79 ± 0.039 kcal/mol; in series [2], 1.81 ± 0.075 kcal/mol; in series [3], 3.16 ± 0.049 kcal/mol.
As to “SAFKIDPNGHIRIMISQDDLKQMSIEEINNLVKELAKAFPPPMKVEIHIMPPPPKPKPPPKRDDDGKPKSAG [r14_312_TrROS]”, the “folding stability dG unfold” value in series [1] was found to be 1.1 ± 0.18 kcal/mol; in series [2] it was 1.54 ± 0.053 kcal/mol; in series [3], 0.66 ± 0.13 kcal/mol.
As for “SAFKILPDGTILIDIGEDEAKKLSIEEIEALVKEIEKLLPKDYKVEIHIIPKKPIPKPPLIPGKDNLIGSAG [r14_312_TrMRF]”, the “folding stability dG unfold” value is 1.91 ± 0.071 kcal/mol in series [1], 1.94 ± 0.063 kcal/mol in series [2] and 1.97 ± 0.041 kcal/mol in series [3].
Regarding “SAFRDLAKEIARDAGYPVELVEIEFTNDTWTFMIQMKNDGEPYYFRIEIEWPNPNPGDWRIEIDDVQPPSAG [r14_387_TrROS]”, the “folding stability dG unfold” value in series [1] stood at 2.78 ± 0.28 kcal/mol; in series [2], 1.94 ± 0.14 kcal/mol; in series [3], 3.09 ± 0.094 kcal/mol.
In the same order, the values of “SAGAAPVGARLVKVEPLPGDGPFVLVEVTPPDGKPGFILVPWEFFESGYLKNATAADIAKRFPFAKPASAGG [r19_74_TrMRF]” are 1.49 ± 0.056 kcal/mol, 0.513 ± 0.019 kcal/mol and 1.85 ± 0.028 kcal/mol.
The corresponding values for “SAGAATINPNPLTLEIESPDGTKYTVSPEEVQKIKDELEAKGKPPTLEEILNEIKKRFPNWRVSYSPESAGG [r19_46_JUSTAS]” are 3.44 ± 0.058 kcal/mol, 3.06 ± 0.076 kcal/mol and 3.59 ± 0.04 kcal/mol.
With “SAGADSVTYDPETNLVVVYRRVGDDVEVLVLEPVPLPVVVVVPVEDAVTRNPELRPLLEQNPDFYLVFPSAG [r5_957_TrMRF]”, the “folding stability dG unfold” value in series [1] is 2.13 ± 0.051 kcal/mol; in series [2], 1.88 ± 0.036 kcal/mol; in series [3], 2.248 ± 0.022 kcal/mol.
Regarding “SAGAKIVSVEKVNGEKKITIKVKKEGDEIVIVFPKKNAKIEKKKNGTIEITIKEGETVIIVLKVKKKKSAGG [r19_227_TrROS_Hall]”, the “folding stability dG unfold” value in series [1] came out at 2.99 ± 0.22 kcal/mol; in series [2] it was 1.82 ± 0.051 kcal/mol; in series [3], 3.29 ± 0.082 kcal/mol.
Turning to “SAGALPPDQVVPIPVLVRLSEDDPELREAIERGEVVEFELPGPLRLLAEFEPLPEDLVLVTLYLEVPEGSAG [r5_223_TrMRF]”, the “folding stability dG unfold” value in series [1] is 1.98 ± 0.17 kcal/mol; in series [2], 1.28 ± 0.052 kcal/mol; in series [3], 2.3 ± 0.062 kcal/mol.
The corresponding values for “SAGAMKITMPEDISVSPSGGATVTITVEFPDKDAVYTVPVTFPDVKSVEEVLARAEEVGKEFAEELKKKSAG [r5_940_JUSTAS]” are 0.73 ± 0.099 kcal/mol, 0.484 ± 0.046 kcal/mol and 0.872 ± 0.063 kcal/mol.
As to “SAGAQPIKLKLVDPNGWEIDDIEIEYSPNGMYMIGIENPDNGRPMHIQYNPDDGKIEIRWPNGKLFEIESAG [r5_809_TrROS]”, the “folding stability dG unfold” value in series [1] came out at 0.841 ± 0.12 kcal/mol; in series [2] it was 0.713 ± 0.041 kcal/mol; in series [3], 0.902 ± 0.13 kcal/mol.
In the case of “SAGASVSRPVSADEEFSVTVPPEPVTLEVTVYRPDGSVLSSRTIPVGPNTTVTLNVPDPDWSVSFSPVASAG [r5_797_JUSTAS]”, the “folding stability dG unfold” value in series [1] is 0.232 ± 0.2 kcal/mol; in series [2], -0.0205 ± 0.2 kcal/mol; in series [3], 0.082 ± 0.18 kcal/mol.
As to “SAGATFKPGQTITVTVTVTVTVTNADGSTTTVTATVTVTLTVEPAPPLTFKTAEEAEAARKAGLSPEELSAG [r5_624_TrROS_Hall]”, the entries for the “folding stability dG unfold” value in series [1], in series [2] and in series [3] were 1.84 ± 0.23 kcal/mol, 1.35 ± 0.07 kcal/mol and 1.9 ± 0.076 kcal/mol, respectively.
For the sequence “SAGATLLEERELPDGSRVEVYREPDKLIVRVFSPDREVETRVFPLPPEPPLPVVPVVVDPARGRFVRLSAGG [r19_254_JUSTAS]”, the “folding stability dG unfold” value in series [1] was -0.106 ± 0.077 kcal/mol; in series [2], -0.621 ± 0.19 kcal/mol; in series [3] it was -0.00636 ± 0.11 kcal/mol.
Take “SAGDDWIPIEEIARRIARKHGYPVKSVEVPIYKTPDYYYVTVHIKYENPDDGKKQEFEDQFWIPKDEIKSAG [r5_421_TrROS]”: the “folding stability dG unfold” value amounted to 0.886 ± 0.17 kcal/mol in series [1], 0.968 ± 0.065 kcal/mol in series [2] and 0.97 ± 0.054 kcal/mol in series [3].
As for “SAGDIGRVEARPVPLPGDRPGRVVVVESSVPNLRVLLFRGPEDRWVALVETDGRVEELPLEEALRLLASSAG [r5_157_TrMRF]”, the “folding stability dG unfold” value in series [1] came out at 2.39 ± 0.076 kcal/mol; in series [2] it was 1.69 ± 0.043 kcal/mol; in series [3], 2.717 ± 0.021 kcal/mol.
As for “SAGDLLKNLPPEIVEVEEVKTLPDGTKYFLVKVKKDGKERVFVIELDKNGKIVKIEEMSKEEAEKLLKKSAG [r5_73_TrROS_Hall]”, the “folding stability dG unfold” value in series [1] was found to be 3.32 ± 0.17 kcal/mol; in series [2], 1.84 ± 0.088 kcal/mol; in series [3], 3.74 ± 0.097 kcal/mol.
The corresponding values for “SAGDLSPSDTVDLEVTPVKVGDKWVHEVRVTVTLPDGSSLRSTLRLPPELGPPRRGRLSVPEFVALVAASAG [r5_831_JUSTAS]” are 2.14 ± 0.11 kcal/mol, 1.85 ± 0.024 kcal/mol and 2.39 ± 0.044 kcal/mol.
With “SAGDPDRPLGPVEITVDPEENTLTITFGDLTLTLPLPEGVEATAEVFPDHVVLTVRYPDGTIRTFVFPLSAG [r5_21_TrMRF]”, the “folding stability dG unfold” value in series [1] was determined as 5.06 ± 0.16 kcal/mol; in series [2], 4.14 ± 0.13 kcal/mol; in series [3], 5.09 ± 0.15 kcal/mol.
The corresponding values for “SAGDPRLRVLVVDLEVEGLEELREFVEEHPDVEVLPRPDGRVLLRRVLLVEVEEPEGEEDPDGPTLHPDSAG [r5_129_TrMRF]” are 1.26 ± 0.13 kcal/mol, 0.966 ± 0.11 kcal/mol and 1.44 ± 0.18 kcal/mol.
On to “SAGDWELVELRPFRFPNGLEALVAVYRNPADERLVVLTVVREPEGRLVAVALVEFDGDKLVSESVFSPGSAG [r14_828_TrMRF]”, for which the “folding stability dG unfold” value came to 3.4 ± 0.12 kcal/mol in series [1], 2.62 ± 0.079 kcal/mol in series [2] and 3.755 ± 0.025 kcal/mol in series [3].
In the case of “SAGDWVPIEFTIFFPDPNMTIEEIADSALMNLGLPPEDVTVKIKNIHEQPDPDGRPYYHIEVKIYIPDNSAG [r5_528_TrROS]”, the “folding stability dG unfold” value in series [1] was found to be 2.75 ± 0.23 kcal/mol; in series [2], 1.7 ± 0.13 kcal/mol; in series [3], 3.17 ± 0.13 kcal/mol.
In the same order, the values of “SAGDWYVVIEIKHPNGRTITFVLRFDSPDELKDEILDNMRDEYGGPPEDMPITDIRVEVFDPKTGKPIWSAG [r5_482_TrROS]” are 3.15 ± 0.14 kcal/mol, 2.65 ± 0.18 kcal/mol and 3.36 ± 0.09 kcal/mol.
The corresponding values for “SAGEDGWHVVKIWIMIPGPAQLDEFLEEHPNVEIWPNPNGYFMVRITIRVPVPPPPPERDPDNGEPEPDSAG [r5_129_TrROS]” are 4.29 ± 0.1 kcal/mol, 3.73 ± 0.11 kcal/mol and 4.66 ± 0.064 kcal/mol.
The corresponding values for “SAGEEKVEELARELAEELGVTITEVTVTEEGDTVTITVVNEETGERITITVTRNEDGEITVTITVEKLPSAG [r5_888_TrROS_Hall]” are 2.62 ± 0.11 kcal/mol, 2.61 ± 0.28 kcal/mol and 2.53 ± 0.17 kcal/mol.
